Experimental data taken from patent EP2386565A2, “Compounds and methods to inhibit or augment an inflammatory response” (Cambridge Enterprise Ltd., priority 1999, dated 2000).
Positions of bridges follow the written chain, without caps; N, C: chain ends. Non-standard residues stand in square brackets, D forms with d. No end group written: not given here. *: point of attachment. Biotin = O=C1N[C@H]2[C@H](CS[C@H]2CCCCC(=O)*)N1

Columns and labels:
[1] = molecular target: T1, Duffy Antigen Receptor for Chemokines (DARC) (human) (UniProt Q16570); test: estimated ka for binding to red blood cells divided by average inhibitory ED50 in THP-1 migration
T1 sequence (looked up): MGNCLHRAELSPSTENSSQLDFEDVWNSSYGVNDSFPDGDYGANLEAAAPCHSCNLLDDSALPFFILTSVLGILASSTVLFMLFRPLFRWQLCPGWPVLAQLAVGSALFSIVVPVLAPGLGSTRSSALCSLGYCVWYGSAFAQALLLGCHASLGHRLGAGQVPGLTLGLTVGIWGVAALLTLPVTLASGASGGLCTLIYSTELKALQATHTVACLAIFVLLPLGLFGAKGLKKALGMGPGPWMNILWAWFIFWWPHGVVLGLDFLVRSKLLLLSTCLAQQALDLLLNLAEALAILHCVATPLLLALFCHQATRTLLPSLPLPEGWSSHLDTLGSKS

[2] = molecular target: T1, Duffy Antigen Receptor for Chemokines (DARC) (human); test: Table 18, DARC binding (µM); >100 = ED50 not determined
[3] = molecular target: chemokine receptors on THP-1 cells; test: biotinylated peptide 2 on THP-1 cells, streptavidin-peroxidase, with and without 100 µM peptide 3; given as affinity constant
[4] = molecular target: T2, Duffy Antigen Receptor for Chemokines (DARC) (human), Q16570; test: Duffy binding against the LFL peptide
T2 chain: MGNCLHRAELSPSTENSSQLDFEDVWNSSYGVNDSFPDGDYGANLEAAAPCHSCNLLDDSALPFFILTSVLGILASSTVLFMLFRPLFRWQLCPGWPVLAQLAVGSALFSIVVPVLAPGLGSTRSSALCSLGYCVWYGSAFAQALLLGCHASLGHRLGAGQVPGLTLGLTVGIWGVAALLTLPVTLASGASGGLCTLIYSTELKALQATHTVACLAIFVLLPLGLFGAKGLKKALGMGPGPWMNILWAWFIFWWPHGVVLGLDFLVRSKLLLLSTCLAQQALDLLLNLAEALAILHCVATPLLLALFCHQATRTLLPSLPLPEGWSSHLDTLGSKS

CCR5 (human), P51681 = test: not stated; given as affinity constant
CXCR4 (human), P61073 = molecular target: T3, CXCR4 (human), P61073; test: not stated; given as affinity constant
T3 chain: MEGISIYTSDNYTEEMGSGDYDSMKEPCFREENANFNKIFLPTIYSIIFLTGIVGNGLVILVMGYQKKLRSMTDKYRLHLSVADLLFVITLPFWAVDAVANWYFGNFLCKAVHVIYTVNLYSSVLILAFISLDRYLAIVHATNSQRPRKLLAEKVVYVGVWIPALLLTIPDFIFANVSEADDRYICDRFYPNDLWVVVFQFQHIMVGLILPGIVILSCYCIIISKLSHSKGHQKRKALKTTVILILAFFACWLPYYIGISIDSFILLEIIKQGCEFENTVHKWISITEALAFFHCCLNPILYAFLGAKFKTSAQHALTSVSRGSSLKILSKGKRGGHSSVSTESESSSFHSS

[5] = molecular target: T2, Duffy Antigen Receptor for Chemokines …; test: Duffy binding; kind of constant not named
[6] = molecular target: T2, Duffy Antigen Receptor for Chemokines …; test: Table 18, DARC binding (µM); method not restated
[7] = molecular target: chemokine receptors on THP-1 cells; test: estimated ka for binding to THP-1 cells (column 'average ED50', peptide 2 family footnote)
[8] = molecular target: chemokine receptors on THP-1 cells; test: comparison of DARC binding and THP-1 cells
[9] = molecular target: chemokine receptors on THP-1 cells; test: binding to THP-1 cells; printed as association constant in concentration units
[10] = molecular target: chemokine receptors on THP-1 cells; test: binding to chemokine receptors on THP-1 cells; printed as Ka in concentration units
[11] = molecular target: chemokine receptors on the surface of Jurkat cells; test: binding to chemokine receptors on the surface of Jurkat cells; printed as Ka in concentration units
[12] = molecular target: chemokine receptors on THP-1 cells; test: binding to chemokine receptors on THP-1 cells; given as association constant
[13] = molecular target: T1, Duffy Antigen Receptor for Chemokines (DARC) (human); test: DARC binding; method not restated
[14] = molecular target: T1, Duffy Antigen Receptor for Chemokines (DARC) (human); test: Table 18, DARC binding (µM); method not restated
[15] = molecular target: T1, Duffy Antigen Receptor for Chemokines (DARC) (human); test: ka for binding to red blood cells divided by ka for binding to THP-1 cells

CCR5 (human), P51681, sequence (P51681 whole entry): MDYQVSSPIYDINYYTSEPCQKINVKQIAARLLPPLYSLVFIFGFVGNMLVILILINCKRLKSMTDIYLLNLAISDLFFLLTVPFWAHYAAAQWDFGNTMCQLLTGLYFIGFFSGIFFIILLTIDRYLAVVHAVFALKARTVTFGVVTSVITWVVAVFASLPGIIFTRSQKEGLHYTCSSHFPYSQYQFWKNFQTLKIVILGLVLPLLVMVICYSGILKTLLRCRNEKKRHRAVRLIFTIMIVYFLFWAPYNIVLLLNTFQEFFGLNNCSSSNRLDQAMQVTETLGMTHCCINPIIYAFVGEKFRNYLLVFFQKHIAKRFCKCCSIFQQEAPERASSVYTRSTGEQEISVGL

Binder: CADPKQKWVQ [Peptide 3(3-12)[MCP-1]]
- Duffy selectivity [1]: 1.21

Binder: EICADPSEEWVQ (not fully specified) [Ser7Glu8Glu9peptide 3(1-12)[MCP-1]]
- Duffy selectivity [1]: 0.59

Binder: CPKEAV
- DARC binding [2]: > 100 µM

Binder: [dC][dV][dA][dE][dK][dP][dS][dK][dS][dS][dT][dI][dR][dR][dY][dS][dC] (cysteine pairing not given here) [LRD Cys0Ser10Cys16 derivative of peptide 2(1-15)[MCP-1]]
- DARC binding [2]: > 100 µM

Binder: [dC][dQ][dV][dW][dK][dQ][dK][dP][dD][dA][dC] (disulfide 1-11; not fully specified) [CRD-Cys13pep3[3-12]]
- Duffy selectivity [1]: 8.82

Binder: KQKWVQ [Peptide 3(7-12)[MCP-1]]
- Duffy selectivity [1]: 2.94

Binder: Biotin-SYRRITSSKCPKEAV [N-terminal biotin-labeled derivative of peptide 2(1-15)[MCP-1]]
- Kd [3]: 250000 nM

Binder: VAEKPCKSSTIRRYS (not fully specified (some residues)) [LRD peptide 2(1-15)[MCP-1]]
- gp120 ED-50 (chemokine receptors): 3 µM
- fold decrease in Duffy binding against LFL peptide 2 [4]: 100 fold
- Kd (CCR5 (human), P51681): < 100 nM
- Kd (CXCR4 (human), P61073): < 100 nM
- Kd [5]: 25000 nM
- DARC binding [6]: 18 µM

Binder: ELRVIESGPHCANTEI [Pep2(1-16)[IL8]]
- Kd [7]: 1000 to 10000 nM

Binder: EICLDPKQKWIQ [Leu4Ile11peptide 3(1-12)[MCP-1]]
- selectivity for receptors on THP-1 cells over DARC [8]: > 20 fold

Binder: EICADPSQKWVQ [Ser7peptide 3(1-12)[MCP-1]]
- Duffy selectivity [1]: 2

Binder: EICADPKQKWVQ [Peptide 3(1-12)[MCP-1]]
- Kd [9]: 10000 nM
- Duffy selectivity [1]: 1

Binder: SYRRITSSKCPKEAV [Peptide 2(1-15)[MCP-1]]
- gp120 ED-50 (chemokine receptors): 0.4 µM
- Kd [10]: 300 nM
- Kd [7]: 2000 nM
- Kd [11]: 250 nM

Binder: DYFETSSQCSKPGV [Pep2(1-14)[MIP1α]]
- gp120 ED-50 (chemokine receptors): > 100 µM
- Kd [12]: 100 to 900 nM
- Kd [7]: 1000 to 10000 nM

Binder: SYRRITSSKSPKEAV [Ser10 variant of peptide 2(1-15)[MCP-1]]
- DARC binding [13]: 20 to 100 µM

Binder: EICADP [Peptide 3(1-6)[MCP-1]]
- Duffy selectivity [1]: 5.32

Binder: HLKILNTPNCALQIV [Pep2(1-15)[SDF1]]
- gp120 ED-50 (chemokine receptors): 35 µM
- DARC binding [14]: 19 µM
- Duffy selectivity [15]: < 1
- Kd [7]: 1000 to 10000 nM
